# Results: article PMC7572726 (Nature, 2020)
# B1: Flavobacteriaceae sp. STING (ΔTM) (domain or fragment)
# chain: EAEYSPAFALAVGYFKNFIFPAITQIKENGEVNPKICIYKPKHFDELTSTNIDMIKAELTNKKYNLSEINLSLKGARARDILTLNKKSKIHSYFDFPNTLLSLYSYVDFKIASSNNNSSELKKKKFVELLIEQFYLKLNELIQENNLTNNITFCDKNLQGL
# Target: the molecule itself
# Experiment: crystal structure
protein,measurement,value
B1,stoichiometry N,2
